# Reference: PMC9482650, “Quantitative fragmentomics allow affinity mapping of interactomes” (Nature Communications, 2022)
# Target: DLG1_1, Q12959
# Assay: holdup assay
# Parameters: key: below the threshold = too weak to quantify, mostly under pKd 3.1 to 4
# Conditions: plain residues with an end cap or a label only (N-terminal biotin on a linker: ado-ado)
row,Binder,pKd
1,"RPGFASESKV [ADRB1, P08588]",3.71
2,"GQETPLNTFC [MAP7D2, Q96T17]",below the threshold

# Target: SCRIB_3, Q14160
# Assay: holdup assay
# Parameters: key: below the threshold = too weak to quantify, mostly under pKd 3.1 to 4
# Conditions: plain residues with an end cap or a label only (N-terminal biotin on a linker: ado-ado)
# SCRIB_3, Q14160, sequence (Q14160 999-1103): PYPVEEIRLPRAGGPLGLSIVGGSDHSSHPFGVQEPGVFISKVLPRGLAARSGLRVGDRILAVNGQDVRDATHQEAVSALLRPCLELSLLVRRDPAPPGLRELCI
row,Binder,pKd
1,"RPGFASESKV [ADRB1, P08588]",3.49
2,"GQETPLNTFC [MAP7D2, Q96T17]",below the threshold

# Target: T1, NHERF3_4, Q5T2W1
# T1 sequence (Q5T2W1 373-468, limits assumed, looked up): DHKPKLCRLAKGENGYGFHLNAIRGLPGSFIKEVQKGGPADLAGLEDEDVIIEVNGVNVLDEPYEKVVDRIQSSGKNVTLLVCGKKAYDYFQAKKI
# Assay: holdup assay
# Parameters: key: below the threshold = too weak to quantify, mostly under pKd 3.1 to 4
# Conditions: plain residues with an end cap or a label only (N-terminal biotin on a linker: ado-ado)
row,Binder,pKd
1,"RPGFASESKV [ADRB1, P08588]",below the threshold
2,"GQETPLNTFC [MAP7D2, Q96T17]",below the threshold

# Target: TJP2_1, Q9UDY2
# Sequence (Q9UDY2 24-128): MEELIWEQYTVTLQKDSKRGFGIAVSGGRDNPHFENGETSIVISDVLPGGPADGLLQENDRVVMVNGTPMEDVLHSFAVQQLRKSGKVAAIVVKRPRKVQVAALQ
# Assay: holdup assay
# Parameters: key: below the threshold = too weak to quantify, mostly under pKd 3.1 to 4
# Conditions: plain residues with an end cap or a label only (N-terminal biotin on a linker: ado-ado)
row,Binder,pKd
1,"RPGFASESKV [ADRB1, P08588]",below the threshold
2,"GQETPLNTFC [MAP7D2, Q96T17]",below the threshold

# Target: SCRIB_1, Q14160
# Sequence (Q14160 718-814): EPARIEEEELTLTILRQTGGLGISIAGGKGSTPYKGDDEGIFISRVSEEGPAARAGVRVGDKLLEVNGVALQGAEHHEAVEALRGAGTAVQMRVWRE
# Assay: holdup assay
# Parameters: key: below the threshold = too weak to quantify, mostly under pKd 3.1 to 4
# Conditions: plain residues with an end cap or a label only (N-terminal biotin on a linker: ado-ado)
row,Binder,pKd
1,"RPGFASESKV [ADRB1, P08588]",3.94
2,"GQETPLNTFC [MAP7D2, Q96T17]",3.88

# Target: Inadl_2, Q8NI35
# Sequence (Q8NI35 238-335): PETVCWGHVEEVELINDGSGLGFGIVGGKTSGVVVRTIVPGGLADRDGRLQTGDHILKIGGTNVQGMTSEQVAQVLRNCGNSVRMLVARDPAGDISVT
# Assay: holdup assay
# Parameters: key: below the threshold = too weak to quantify, mostly under pKd 3.1 to 4
# Conditions: plain residues with an end cap or a label only (N-terminal biotin on a linker: ado-ado)
row,Binder,pKd
1,"RPGFASESKV [ADRB1, P08588]",below the threshold
2,"GQETPLNTFC [MAP7D2, Q96T17]",below the threshold

# Target: SNX27, Q96L92
# Assay: holdup assay
# Parameters: key: below the threshold = too weak to quantify, mostly under pKd 3.1 to 4
# Conditions: plain residues with an end cap or a label only (N-terminal biotin on a linker: ado-ado)
row,Binder,pKd
1,"RPGFASESKV [ADRB1, P08588]",4.84
2,"GQETPLNTFC [MAP7D2, Q96T17]",3.49

# Target: T2, MPDZ_12, O75970
# T2 sequence (O75970 1857-1958, limits assumed, looked up): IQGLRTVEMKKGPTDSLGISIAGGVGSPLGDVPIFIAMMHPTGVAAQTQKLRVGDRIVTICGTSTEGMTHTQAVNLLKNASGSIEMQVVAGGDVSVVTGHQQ
# Assay: holdup assay
# Parameters: key: below the threshold = too weak to quantify, mostly under pKd 3.1 to 4
# Conditions: plain residues with an end cap or a label only (N-terminal biotin on a linker: ado-ado)
row,Binder,pKd
1,"RPGFASESKV [ADRB1, P08588]",below the threshold
2,"GQETPLNTFC [MAP7D2, Q96T17]",below the threshold

# Target: T3, PARD3B_1, Q8TEW8
# T3 sequence (Q8TEW8 196-299, limits assumed, looked up): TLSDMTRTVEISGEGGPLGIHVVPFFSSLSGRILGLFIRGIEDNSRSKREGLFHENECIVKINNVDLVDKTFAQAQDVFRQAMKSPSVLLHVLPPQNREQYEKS
# Assay: holdup assay
# Parameters: key: below the threshold = too weak to quantify, mostly under pKd 3.1 to 4
# Conditions: plain residues with an end cap or a label only (N-terminal biotin on a linker: ado-ado)
row,Binder,pKd
1,"RPGFASESKV [ADRB1, P08588]",below the threshold
2,"GQETPLNTFC [MAP7D2, Q96T17]",below the threshold

# Target: T4, DLG3_3, Q92796
# T4 sequence (Q92796 374-475, limits assumed, looked up): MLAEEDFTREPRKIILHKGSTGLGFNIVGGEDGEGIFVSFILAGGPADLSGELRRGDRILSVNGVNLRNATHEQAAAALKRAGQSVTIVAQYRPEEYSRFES
# Assay: holdup assay
# Parameters: key: below the threshold = too weak to quantify, mostly under pKd 3.1 to 4
# Conditions: plain residues with an end cap or a label only (N-terminal biotin on a linker: ado-ado)
row,Binder,pKd
1,"RPGFASESKV [ADRB1, P08588]",3.7
2,"GQETPLNTFC [MAP7D2, Q96T17]",below the threshold

# Target: T5, DFNB31_2, Q9P202
# T5 sequence (Q9P202 274-371, limits assumed, looked up): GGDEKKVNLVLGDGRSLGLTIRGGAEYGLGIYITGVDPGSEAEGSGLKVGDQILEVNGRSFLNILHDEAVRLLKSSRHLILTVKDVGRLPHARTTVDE
# Assay: holdup assay
# Parameters: key: below the threshold = too weak to quantify, mostly under pKd 3.1 to 4
# Conditions: plain residues with an end cap or a label only (N-terminal biotin on a linker: ado-ado)
row,Binder,pKd
1,"RPGFASESKV [ADRB1, P08588]",below the threshold
2,"GQETPLNTFC [MAP7D2, Q96T17]",below the threshold

# Target: MAST2, Q6P0Q8
# Sequence (Q6P0Q8 1099-1202): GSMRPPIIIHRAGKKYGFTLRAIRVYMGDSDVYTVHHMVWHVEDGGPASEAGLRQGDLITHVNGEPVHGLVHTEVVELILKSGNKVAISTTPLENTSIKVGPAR
# Assay: holdup assay
# Parameters: key: below the threshold = too weak to quantify, mostly under pKd 3.1 to 4
# Conditions: plain residues with an end cap or a label only (N-terminal biotin on a linker: ado-ado)
row,Binder,pKd
1,"RPGFASESKV [ADRB1, P08588]",5.01
2,"GQETPLNTFC [MAP7D2, Q96T17]",4.21

# Target: T6, DFNB31_3, Q9P202
# T6 sequence (Q9P202 811-907, limits assumed, looked up): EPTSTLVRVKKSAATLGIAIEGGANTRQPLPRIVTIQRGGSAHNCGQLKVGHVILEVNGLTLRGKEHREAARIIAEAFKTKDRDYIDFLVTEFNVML
# Assay: holdup assay
# Parameters: key: below the threshold = too weak to quantify, mostly under pKd 3.1 to 4
# Conditions: plain residues with an end cap or a label only (N-terminal biotin on a linker: ado-ado)
row,Binder,pKd
1,"RPGFASESKV [ADRB1, P08588]",below the threshold
2,"GQETPLNTFC [MAP7D2, Q96T17]",below the threshold

# Target: T7, GRIP1_5, Q9Y3R0
# T7 sequence (Q9Y3R0 568-668, limits assumed, looked up): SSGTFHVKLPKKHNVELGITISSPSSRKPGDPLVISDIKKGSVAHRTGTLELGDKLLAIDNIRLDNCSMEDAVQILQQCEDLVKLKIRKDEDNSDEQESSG
# Assay: holdup assay
# Parameters: key: below the threshold = too weak to quantify, mostly under pKd 3.1 to 4
# Conditions: plain residues with an end cap or a label only (N-terminal biotin on a linker: ado-ado)
row,Binder,pKd
1,"RPGFASESKV [ADRB1, P08588]",below the threshold
2,"GQETPLNTFC [MAP7D2, Q96T17]",below the threshold

# Target: T8, PDZD2_2, O15018
# T8 sequence (O15018 329-429, limits assumed, looked up): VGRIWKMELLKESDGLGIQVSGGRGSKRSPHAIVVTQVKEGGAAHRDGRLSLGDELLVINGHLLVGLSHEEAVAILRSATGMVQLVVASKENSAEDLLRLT
# Assay: holdup assay
# Parameters: key: below the threshold = too weak to quantify, mostly under pKd 3.1 to 4
# Conditions: plain residues with an end cap or a label only (N-terminal biotin on a linker: ado-ado)
row,Binder,pKd
1,"RPGFASESKV [ADRB1, P08588]",4.2
2,"GQETPLNTFC [MAP7D2, Q96T17]",4.03

# Target: GRIP2_5, Q9C0E4
# Sequence (Q9C0E4 544-642): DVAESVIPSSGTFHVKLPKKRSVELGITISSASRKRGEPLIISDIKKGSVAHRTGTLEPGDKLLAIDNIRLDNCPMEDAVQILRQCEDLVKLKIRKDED
# Assay: holdup assay
# Parameters: key: below the threshold = too weak to quantify, mostly under pKd 3.1 to 4
# Conditions: plain residues with an end cap or a label only (N-terminal biotin on a linker: ado-ado)
row,Binder,pKd
1,"RPGFASESKV [ADRB1, P08588]",below the threshold
2,"GQETPLNTFC [MAP7D2, Q96T17]",below the threshold

# Target: PDZRN4_1, Q6ZMN7
# Sequence (Q6ZMN7 213-318): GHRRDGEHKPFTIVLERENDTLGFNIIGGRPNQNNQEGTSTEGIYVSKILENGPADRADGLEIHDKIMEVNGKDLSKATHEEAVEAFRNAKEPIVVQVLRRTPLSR
# Assay: holdup assay
# Parameters: key: below the threshold = too weak to quantify, mostly under pKd 3.1 to 4
# Conditions: plain residues with an end cap or a label only (N-terminal biotin on a linker: ado-ado)
row,Binder,pKd
1,"RPGFASESKV [ADRB1, P08588]",3.69
2,"GQETPLNTFC [MAP7D2, Q96T17]",below the threshold

# Target: T9, RAPGEF6, Q8TEU7
# T9 sequence (Q8TEU7 525-625, limits assumed, looked up): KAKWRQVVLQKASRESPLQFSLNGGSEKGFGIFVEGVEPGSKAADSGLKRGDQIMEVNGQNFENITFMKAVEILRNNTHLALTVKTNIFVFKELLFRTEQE
# Assay: holdup assay
# Parameters: key: below the threshold = too weak to quantify, mostly under pKd 3.1 to 4
# Conditions: plain residues with an end cap or a label only (N-terminal biotin on a linker: ado-ado)
row,Binder,pKd
1,"RPGFASESKV [ADRB1, P08588]",below the threshold
2,"GQETPLNTFC [MAP7D2, Q96T17]",below the threshold

# Target: T10, LIN7B, Q9HAP6
# T10 sequence (Q9HAP6 88-185, limits assumed, looked up): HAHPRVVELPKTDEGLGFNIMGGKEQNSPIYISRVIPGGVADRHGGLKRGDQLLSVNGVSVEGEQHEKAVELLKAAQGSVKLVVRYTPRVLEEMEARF
# Assay: holdup assay
# Parameters: key: below the threshold = too weak to quantify, mostly under pKd 3.1 to 4
# Conditions: plain residues with an end cap or a label only (N-terminal biotin on a linker: ado-ado)
row,Binder,pKd
1,"RPGFASESKV [ADRB1, P08588]",below the threshold
2,"GQETPLNTFC [MAP7D2, Q96T17]",3.81

# Target: T11, LRRC7, Q96NW7
# T11 sequence (Q96NW7 1440-1537, limits assumed, looked up): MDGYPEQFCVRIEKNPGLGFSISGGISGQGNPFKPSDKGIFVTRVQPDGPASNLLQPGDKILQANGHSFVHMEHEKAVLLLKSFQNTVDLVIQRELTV
# Assay: holdup assay
# Parameters: key: below the threshold = too weak to quantify, mostly under pKd 3.1 to 4
# Conditions: plain residues with an end cap or a label only (N-terminal biotin on a linker: ado-ado)
row,Binder,pKd
1,"RPGFASESKV [ADRB1, P08588]",3.59
2,"GQETPLNTFC [MAP7D2, Q96T17]",below the threshold

# Target: NHERF2_2, Q15599
# Sequence (Q15599 142-238): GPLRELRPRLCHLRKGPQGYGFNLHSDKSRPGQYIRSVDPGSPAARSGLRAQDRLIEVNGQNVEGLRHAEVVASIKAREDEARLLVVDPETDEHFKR
# Assay: holdup assay
# Parameters: key: below the threshold = too weak to quantify, mostly under pKd 3.1 to 4
# Conditions: plain residues with an end cap or a label only (N-terminal biotin on a linker: ado-ado)
row,Binder,pKd
1,"RPGFASESKV [ADRB1, P08588]",below the threshold
2,"GQETPLNTFC [MAP7D2, Q96T17]",3.94

# Target: T12, MPP2, Q14168
# T12 sequence (Q14168 180-250, limits assumed, looked up): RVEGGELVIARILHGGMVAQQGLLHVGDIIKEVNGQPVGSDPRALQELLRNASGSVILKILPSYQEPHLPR
# Assay: holdup assay
# Parameters: key: below the threshold = too weak to quantify, mostly under pKd 3.1 to 4
# Conditions: plain residues with an end cap or a label only (N-terminal biotin on a linker: ado-ado)
row,Binder,pKd
1,"RPGFASESKV [ADRB1, P08588]",below the threshold
2,"GQETPLNTFC [MAP7D2, Q96T17]",below the threshold

# Target: LNX1_3, Q8TBB1
# Sequence (Q8TBB1 500-596): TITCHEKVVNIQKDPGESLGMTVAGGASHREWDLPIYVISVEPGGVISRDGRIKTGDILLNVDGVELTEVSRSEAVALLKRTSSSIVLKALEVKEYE
# Assay: holdup assay
# Parameters: key: below the threshold = too weak to quantify, mostly under pKd 3.1 to 4
# Conditions: plain residues with an end cap or a label only (N-terminal biotin on a linker: ado-ado)
row,Binder,pKd
1,"RPGFASESKV [ADRB1, P08588]",below the threshold
2,"GQETPLNTFC [MAP7D2, Q96T17]",below the threshold

# Target: T13, GRIP1_4, Q9Y3R0
# T13 sequence (Q9Y3R0 467-571, limits assumed, looked up): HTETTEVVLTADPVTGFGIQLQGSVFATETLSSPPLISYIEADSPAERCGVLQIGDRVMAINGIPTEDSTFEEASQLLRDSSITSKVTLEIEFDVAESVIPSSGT
# Assay: holdup assay
# Parameters: key: below the threshold = too weak to quantify, mostly under pKd 3.1 to 4
# Conditions: plain residues with an end cap or a label only (N-terminal biotin on a linker: ado-ado)
row,Binder,pKd
1,"RPGFASESKV [ADRB1, P08588]",below the threshold
2,"GQETPLNTFC [MAP7D2, Q96T17]",below the threshold
